Literature values in paper PMC8168288.

Target: BCOR peptide (Homo sapiens) (UniProt Q6W2J9)
Experiment: SPR

BCOR peptide (Homo sapiens), sequence (Q6W2J9 whole entry): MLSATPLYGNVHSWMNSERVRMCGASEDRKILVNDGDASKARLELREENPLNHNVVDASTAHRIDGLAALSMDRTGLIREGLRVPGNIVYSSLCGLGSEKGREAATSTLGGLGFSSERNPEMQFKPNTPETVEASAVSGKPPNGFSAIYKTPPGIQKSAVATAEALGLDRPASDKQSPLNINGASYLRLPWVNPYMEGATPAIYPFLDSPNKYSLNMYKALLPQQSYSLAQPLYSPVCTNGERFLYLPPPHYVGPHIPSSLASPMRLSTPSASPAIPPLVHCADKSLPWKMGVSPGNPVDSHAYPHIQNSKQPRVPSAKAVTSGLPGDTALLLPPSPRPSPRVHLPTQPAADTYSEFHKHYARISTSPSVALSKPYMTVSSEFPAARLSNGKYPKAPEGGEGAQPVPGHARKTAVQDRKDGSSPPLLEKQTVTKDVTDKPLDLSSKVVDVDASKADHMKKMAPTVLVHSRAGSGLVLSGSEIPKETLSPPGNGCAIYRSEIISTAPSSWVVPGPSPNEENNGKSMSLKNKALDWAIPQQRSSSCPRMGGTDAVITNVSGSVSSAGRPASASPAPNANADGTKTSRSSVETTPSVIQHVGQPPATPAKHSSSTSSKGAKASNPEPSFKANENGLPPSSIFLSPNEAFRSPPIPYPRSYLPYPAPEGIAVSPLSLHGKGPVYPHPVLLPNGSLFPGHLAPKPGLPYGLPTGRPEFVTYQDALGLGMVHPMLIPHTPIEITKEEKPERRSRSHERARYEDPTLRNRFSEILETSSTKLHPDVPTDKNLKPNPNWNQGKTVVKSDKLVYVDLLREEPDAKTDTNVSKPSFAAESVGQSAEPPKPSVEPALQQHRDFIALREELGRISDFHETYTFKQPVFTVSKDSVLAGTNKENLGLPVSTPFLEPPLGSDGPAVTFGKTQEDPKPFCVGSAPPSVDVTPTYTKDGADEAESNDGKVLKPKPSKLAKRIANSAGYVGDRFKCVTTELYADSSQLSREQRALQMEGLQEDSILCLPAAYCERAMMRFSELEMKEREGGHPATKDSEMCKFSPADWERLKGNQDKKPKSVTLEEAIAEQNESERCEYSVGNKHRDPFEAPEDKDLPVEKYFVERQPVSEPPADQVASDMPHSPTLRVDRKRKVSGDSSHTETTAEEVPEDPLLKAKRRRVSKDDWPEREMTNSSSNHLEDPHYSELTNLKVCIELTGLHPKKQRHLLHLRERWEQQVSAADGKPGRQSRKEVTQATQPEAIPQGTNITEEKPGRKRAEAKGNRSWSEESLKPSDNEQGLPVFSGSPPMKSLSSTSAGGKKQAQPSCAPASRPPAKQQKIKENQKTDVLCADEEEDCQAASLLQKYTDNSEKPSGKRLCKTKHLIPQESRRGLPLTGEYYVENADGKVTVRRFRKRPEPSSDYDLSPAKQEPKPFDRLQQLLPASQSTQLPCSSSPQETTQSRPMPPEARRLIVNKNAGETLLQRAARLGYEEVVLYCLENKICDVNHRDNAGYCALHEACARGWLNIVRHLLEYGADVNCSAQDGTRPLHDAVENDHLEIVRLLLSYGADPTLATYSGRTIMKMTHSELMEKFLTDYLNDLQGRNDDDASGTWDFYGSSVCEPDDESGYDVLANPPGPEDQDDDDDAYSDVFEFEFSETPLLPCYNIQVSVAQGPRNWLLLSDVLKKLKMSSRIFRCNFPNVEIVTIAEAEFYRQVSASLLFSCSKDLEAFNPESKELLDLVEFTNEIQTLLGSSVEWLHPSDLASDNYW

Kd: 6 µM
Substance: BCL6 BTB (from UniProt P41182)
